Source: patent publication US20190359693A1

Columns and labels:
[1] = biological target: hemagglutinin (HA) of influenza A/Wisconsin/67/05 (H3N2) (influenza A virus); test: cell-based or functional assay
[2] = biological target: hemagglutinin (HA) of influenza B/Florida/04/06 (Yamagata) (influenza B virus); test: cell-based or functional assay
[3] = biological target: hemagglutinin (HA) of influenza B/Brisbane/60/08 (Victoria) (influenza B virus); test: cell-based or functional assay
[4] = biological target: HA of H3N2 A/Wisconsin/67/2005 (influenza A virus); test: AlphaLISA competition vs CR9114
[5] = biological target: HA of H5N1 A/Vietnam/1203/2004 (influenza A virus); test: AlphaLISA competition vs CR9114
[6] = biological target: HA of H3N2 A/Brisbane/10/2007 (influenza A virus); test: AlphaLISA competition vs CR9114
[7] = biological target: HA of B/Brisbane/60/2008 (Victoria) (influenza B virus); test: AlphaLISA competition vs CR9114
[8] = biological target: HA of H1N1 A/New Caledonia/20/1999 (influenza A virus); test: AlphaLISA competition vs CR9114
[9] = biological target: HA of B/Brisbane/60/2008 (Victoria) (influenza B virus); test: AlphaLISA competition vs SD1083
[10] = biological target: HA of B/Florida/04/2006 (Yamagata) (influenza B virus); test: AlphaLISA competition vs SD1083
[11] = biological target: HA of H3N2 A/Brisbane/10/2007 (influenza A virus); test: AlphaLISA competition vs SD1036
[12] = biological target: HA of B/Brisbane/60/2008 (Victoria) (influenza B virus); test: AlphaLISA competition vs SD1086
[13] = biological target: HA of B/Florida/04/2006 (Yamagata) (influenza B virus); test: AlphaLISA competition vs SD1086
[14] = biological target: HA of H3N2 A/Wisconsin/67/2005 (influenza A virus); test: AlphaLISA competition vs CR8057
[15] = biological target: HA of H3N2 A/Brisbane/10/2007 (influenza A virus); test: AlphaLISA competition vs CR8057
[16] = biological target: hemagglutinin (HA) of influenza A/waterfowl/Hong Kong/MPA892/06 (H4) (influenza A virus A/waterfowl/Hong Kong/MPA892/06 (H4)); test: cell-based or functional assay
[17] = biological target: HA of H3N2 A/Wisconsin/67/2005 (influenza A virus); test: cell-based or functional assay
[18] = biological target: hemagglutinin (HA) of influenza A/Brisbane/10/07 (H3N2) (influenza A virus A/Brisbane/10/07 (H3N2)); test: cell-based or functional assay
[19] = biological target: hemagglutinin (HA) of influenza A/New York/107/03 (PR8) (influenza A virus A/New York/107/03 (PR8)); test: cell-based or functional assay
[20] = biological target: hemagglutinin (HA) of influenza virus H5N1 A/Vietnam/1194/04 (influenza A virus); test: cell-based or functional assay
[21] = biological target: HA of H3N2 A/Brisbane/10/2007 (influenza A virus); test: cell-based or functional assay
[22] = biological target: HA of B/Brisbane/60/2008 (Victoria) (influenza B virus); test: cell-based or functional assay
[23] = biological target: HA of H1N1 A/New Caledonia/20/1999 (influenza A virus); test: cell-based or functional assay
[24] = biological target: HA of H5N1 A/Vietnam/1194/04 (influenza A virus); test: cell-based or functional assay
[25] = biological target: HA of H7N3 A/NIBRG/60 (A/mallard/NL/12/00) (influenza A virus); test: cell-based or functional assay
[26] = biological target: hemagglutinin (HA) of influenza A/chicken/Germany/n/49 (H10N7) (influenza A virus A/chicken/Germany/n/49 (H10N7)); test: cell-based or functional assay
[27] = biological target: hemagglutinin (HA) of influenza virus H3N2 A/Wisconsin/67/05 (influenza A virus); test: cell-based or functional assay
[28] = biological target: hemagglutinin (HA) of influenza virus H1N1 A/California/07/09 (influenza A virus); test: cell-based or functional assay
[29] = biological target: HA of H1N1 A/Brisbane/59/07 (influenza A virus); test: cell-based or functional assay
[30] = biological target: HA of B/Florida/04/2006 (Yamagata) (influenza B virus); test: cell-based or functional assay
[31] = biological target: hemagglutinin (HA) of influenza virus H1N1 A/Puerto Rico/8/34-MA (influenza A virus); test: cell-based or functional assay
[32] = biological target: HA of H3N2 A/Wisconsin/67/2005 (influenza A virus); test: AlphaLISA competition vs CR8020
[33] = biological target: HA of H3N2 A/Brisbane/10/2007 (influenza A virus); test: AlphaLISA competition vs CR8020
[34] = biological target: HA of H3N2 A/Brisbane/10/2007 (influenza A virus); test: AlphaLISA competition vs 39.29
[35] = biological target: HA of H3N2 A/Brisbane/10/2007 (influenza A virus); test: AlphaLISA competition vs SD1038
[36] = biological target: HA of B/Brisbane/60/2008 (Victoria) (influenza B virus); test: AlphaLISA competition vs SD1087
[37] = biological target: HA of B/Florida/04/2006 (Yamagata) (influenza B virus); test: AlphaLISA competition vs SD1087
[38] = biological target: HA of H3N2 A/Wisconsin/67/2005 (influenza A virus); test: BLI steady state
[39] = biological target: HA of H3N2 A/Brisbane/10/2007 (influenza A virus); test: BLI steady state
[40] = biological target: HA of H1N1 A/New Caledonia/20/1999 (influenza A virus); test: BLI steady state
[41] = biological target: HA of H7N3 A/NIBRG/60 (A/mallard/NL/12/00) (influenza A virus); test: BLI steady state
[42] = biological target: HA of H7N9 A/Hangzhou/1/2013 (influenza A virus); test: BLI steady state
[43] = biological target: HA of H1N1 A/Brisbane/59/07 (influenza A virus); test: BLI steady state
[44] = biological target: HA of B/Brisbane/60/2008 (Victoria) (influenza B virus); test: AlphaLISA competition vs SD1084
[45] = biological target: HA of B/Florida/04/2006 (Yamagata) (influenza B virus); test: AlphaLISA competition vs SD1084
[46] = biological target: HA of B/Brisbane/60/2008 (Victoria) (influenza B virus); test: AlphaLISA competition vs SD1085
[47] = biological target: HA of B/Florida/04/2006 (Yamagata) (influenza B virus); test: AlphaLISA competition vs SD1085

Chain of SD1036 (VHH) (VHH): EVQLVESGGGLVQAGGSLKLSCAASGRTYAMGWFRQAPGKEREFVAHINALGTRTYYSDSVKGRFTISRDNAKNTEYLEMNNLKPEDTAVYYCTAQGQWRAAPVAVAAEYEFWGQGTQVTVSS

Substance: CR9114 (antibody)
- ADCC induction (EC50 grade, FcγRIIIa reporter bioassay) [1]: < 0.1 µg/mL
- ADCC induction (EC50 grade, FcγRIIIa reporter bioassay) [2]: < 0.1 µg/mL
- ADCC induction (EC50 grade, FcγRIIIa reporter bioassay) [3]: < 0.1 µg/mL

Substance: CR9114-LALA (antibody)
- ADCC induction (EC50 grade, FcγRIIIa reporter bioassay) [1]: > 0.5 µg/mL
- ADCC induction (EC50 grade, FcγRIIIa reporter bioassay) [2]: > 0.5 µg/mL
- ADCC induction (EC50 grade, FcγRIIIa reporter bioassay) [3]: > 0.5 µg/mL

Substance: SD1036 (VHH)
- pIC50 [4]: 7.8
- pIC50 [5]: < 7
- pIC50 [6]: 9.4
- pIC50 [7]: < 7
- pIC50 [8]: < 7
- pIC50 [9]: < 7
- pIC50 [10]: < 7
- pIC50 [11]: 9.1
- pIC50 [12]: < 7
- pIC50 [13]: < 7
- pIC50 [14]: < 7
- pIC50 [15]: < 7
- VNA IC50 [16]: 44 nM
- VNA titer [17]: > 1000 nM
- VNA IC50 [18]: 59 nM
- VNA IC50 [19]: 11 nM
- neutralization titer [20]: < 1000 nM
- VNA titer [21]: 86.7 nM
- VNA titer [22]: > 1000 nM
- VNA titer [23]: > 1000 nM
- VNA titer [24]: > 1000 nM
- VNA titer [25]: 10.9 nM
- VNA IC50 [26]: 10 nM
- neutralization titer [27]: < 1000 nM
- neutralization titer [28]: < 1000 nM
- VNA titer [29]: > 1000 nM
- VNA titer [30]: > 1000 nM
- neutralization titer [31]: < 1000 nM
- pIC50 [32]: 7.2
- pIC50 [33]: 9.2
- pIC50 [34]: 9.2
- pIC50 [35]: 9.3
- pIC50 [36]: < 7
- pIC50 [37]: < 7
- Kd [38]: 122 nM
- Kd [39]: 10 nM
- Kd [40]: 230 nM
- Kd [41]: 2 nM
- Kd [42]: 3 nM
- Kd [43]: 290 nM
- pIC50 [44]: < 7
- pIC50 [45]: < 7
- pIC50 [46]: < 7
- pIC50 [47]: < 7
